T1: Flag-tagged SOD2
T1 sequence: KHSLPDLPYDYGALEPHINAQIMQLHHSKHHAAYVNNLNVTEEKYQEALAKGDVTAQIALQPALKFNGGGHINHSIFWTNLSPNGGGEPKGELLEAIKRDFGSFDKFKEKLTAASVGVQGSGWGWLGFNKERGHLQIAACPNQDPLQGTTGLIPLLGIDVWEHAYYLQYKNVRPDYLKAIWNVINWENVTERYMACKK

T2: Long-chain acyl CoA dehydrogenase (endogenous, mouse liver), P51174
T2 chain: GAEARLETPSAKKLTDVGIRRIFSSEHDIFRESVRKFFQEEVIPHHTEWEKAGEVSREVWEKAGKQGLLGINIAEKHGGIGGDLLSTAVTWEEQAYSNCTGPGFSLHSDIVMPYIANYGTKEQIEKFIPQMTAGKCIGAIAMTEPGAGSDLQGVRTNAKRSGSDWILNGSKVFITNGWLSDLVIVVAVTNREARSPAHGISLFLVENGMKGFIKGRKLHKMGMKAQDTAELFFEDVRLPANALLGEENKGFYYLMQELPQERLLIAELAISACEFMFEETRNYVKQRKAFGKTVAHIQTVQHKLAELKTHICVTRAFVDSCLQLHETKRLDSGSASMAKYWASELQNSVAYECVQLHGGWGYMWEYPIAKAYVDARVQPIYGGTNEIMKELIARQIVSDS

B1: SIRT3 (endogenous, mouse tissue) (protein)
chain: PISLCVGASGGFGGGGSSEKKFSLQDVAELLRTRACSRVVVMVGAGISTPSGIPDFRSPGSGLYSNLQQYDIPYPEAIFELGFFFHNPKPFFMLAKELYPGHYRPNVTHYFLRLLHDKELLLRLYTQNIDGLERASGIPASKLVEAHGTFVTATCTVCRRSFPGEDIWADVMADRVPRCPVCTGVVKPDIVFFGEQLPARFLLHMADFALADLLLILGTSLEVEPFASLSEAVQKSVPRLLINRDLVGPFVLSPRRKDVVQLGDVVHGVERLVDLLGWTQELLDLMQRERGKLDGQDR

Assays:
[1] = tested on: Flag-tagged SOD2 K53R
[2] = tested on: T1, Flag-tagged SOD2
[3] = tested on: Flag-tagged SOD2 K89R
[4] = tested on: Flag-tagged SOD2 mutant of K122
[5] = tested on: Flag-tagged SOD2 K53/89R
[6] = tested on: Flag-tagged SOD2 mutant of K68
[7] = tested on: Flag-tagged SOD2 mutant of K130
[8] = target: T2, Long-chain acyl CoA dehydrogenase …

Row | Molecule | acetylation levels of immunopurified SOD2 mutant [1] | acetylation levels for SOD2 after immunoprecipitation, western blotting with anti-acetyllysine antibody [2] | enzymatic activity of immunopurified SOD2 (superoxide conversion, colorimetric) [2] | acetylation levels of immunopurified SOD2 mutant [3] | acetylation status of immunopurified SOD2 mutant [4] | acetylation levels of immunopurified SOD2 mutant [5] | enzymatic activity of immunopurified SOD2 K53/89R (superoxide conversion, colorimetric) [5] | acetylation status of immunopurified SOD2 mutant [6] | acetylation status of immunopurified SOD2 mutant [7] | enzymatic activity of LCAD in liver lysates (oxidation of palmitoyl-CoA) [8]
1 | SIRT3 (co-transfected expression construct) | SIRT3 co-expression further decreased acetylation levels of K53R and K89R, but not K53/89R | SIRT3, but not SIRT3-H248Y, deacetylated SOD2 | Overexpression of WT SIRT3 decreased the acetylation of SOD2 (FIG. 3D, E, G) and significantly increased its enzymatic activity | SIRT3 co-expression further decreased acetylation levels of K53R and K89R, but not K53/89R | SIRT3 co-expression reduced acetylation levels of these three SOD2 mutants | SIRT3 co-expression further decreased acetylation levels of K53R and K89R, but not K53/89R | SIRT3 did not further increase its enzymatic activity | SIRT3 co-expression reduced acetylation levels of these three SOD2 mutants | SIRT3 co-expression reduced acetylation levels of these three SOD2 mutants | 
2 | SIRT3-H248Y |  | SIRT3, but not SIRT3-H248Y, deacetylated SOD2 | overexpression of SIRT3-H248Y had the opposite effect |  |  |  |  |  |  | 
3 | B1 |  |  |  |  |  |  |  |  |  | we observed a 50% increase in enzymatic activity of LCAD in WT but not SIRT3 KO mice during CR

— patent publication US20140017221
